Assay [1] addresses bovine α-chymotrypsin (bovine). The assay is described as follows: progress curve of protease inhibition; 40 °C; buffer B (100 mM HEPES-NaOH pH 7.5, 200 mM NaCl, 10 mM CaCl2, 0.01% triton X-100, 0.1% glycerol); 1 mM Suc-AAPF-pNA or MeO-SucAAPV-pNA as substrate; various concentrations of Pnserpin; absorption at 410 nm; kass = kunc × (1 + [S]/KM).
Assay [2] deals with bovine α-chymotrypsin (bovine).

In general, kon refers to the second-order rate constant of association.

Take “Pnserpin (from UniProt B1YBN4 1-393) (natural protein)”: the on-rate constant (kon) in assay [1] worked out at 24600 M⁻¹ s⁻¹. Besides, in assay [2], the stoichiometry of inhibition (SI), incubation at 20 °C; residual protease activity was 9.49; the stoichiometry of inhibition (SI), incubation at 30 °C; residual protease activity worked out at 5.8; the stoichiometry of inhibition (SI), incubation at 40 °C; residual protease activity amounted to 4.76; the stoichiometry of inhibition (SI), incubation at 50 °C; residual protease activity was determined as 2.21.

(Values after article PMC5297747.)
